Patent US10556936B2, “Immunogenic proteins and fragments thereof from allergenic mites” (ALK-ABELLÓ A/S, priority 2016, dated 2020)
Marks after values point to notes of the source that are not given here.

B1: A010: house dust mite protein; SEQ ID NO: 41 (Der p), 42 (Der f), 308 (Blo t) (protein)
chain: DSLKCSSIRNEDRIDCNPDPPISKNVCEQRGCCWKTAGNDLKNLSSKVLPNLNVPYCYYGENYIGYKIEKHSKNLIQLKRNRSSGFARDIENINIEIHELNDKVIRLKFIDANKKRYEVPIPKLNLPSTTSSSSSNSRLYSVELDGSHLIVRRRETNQSIFDINLAYMVYSDQLIHVTSRLPSKYIYGLGEHRAPFRKNTNWKRYTQWTRDQYPVTDKALYGNHPFYLTVEDESPKKSASGVFLFNSNAMDIITQPSPAITFRTIGGILDFFVFFGPKPEDVISQYQNLIGLPAMPPFWSLGYQQCRYGYNNFTNLNTTYTRNRAVGIPMDVQWTDIDAFNSNNDFTYDHKRFKELPDFINNVLHPNGQKFIPMFDCGISSGEPAGSYKPFDSGVELDVFVKNSSNKIFRGKVWNGKSTVWPDFSHPNATEYWMDMFAEYHKTIAFDGAWLDMNEPSNFYNGEEHGCPESEIENPQYVPGMTDDSLTLRHKTLCMTARHYNDQLHYNLHNLYSLSMAMATNAALTKLNKRPFIISRATAPGHGHWAYHWNGDILSDWSSMRWTIPSILNFNMFGIPMVGADICGFGGNTAEELCIRWYQLGAFYSFARNHNDIHSIDQDPAALGESVIRAARSSLQYRYRFLAHLYTLFYHVHKNGGTVLRPMFFEFPHDEHTYEIETQFMWGDSVLIAPILYPNQTQHKIYLPKGTWYNRKVSFESQGQYITMNDSYDDIDYVFVRGGSIIPTQEPHDNTELMKTKDFLLIVALDNQTSYAKGSLYWDSGDSLNPDKTGHYNFYNFDAVNNTLTIQSQWLGYQTTQNINFINILGVPKLPTSFKLNGHVSDPRIIRFNYDEQTNILTVETKLPIYNQDSSSHDRIHYQFEWIME
B2: A009: house dust mite protein; SEQ ID NO: 43 (Der f), 44 (Der p), 307 (Blo t) (protein)
chain: VVIKVENLPEQCDYTQCPKWSKDDINVHLVAHTHDDVGWLKTVEQYYYGLKNDIQRAGVQYILDTMIEELIRNKDRRFIYVEIAFFWKWWQEQNEEQRMIVKELVRTGQLEFINGGWSMPDEAATHYNSLIDQSTWGLRQLNDTFGRCGHPKVTWQIDPFGHSKEMANLYAQMGYDALFFARQDYQDRENRMSNRTLEHVWQGSDDLGEIGDIFTGMMFSGYGPIEFNWDITNGPEDAVVDNPESEEYNVPDKIRRFVEKAKYFGQFYATNHFMFPMGTDFQYTDAHTWFKNLDKLINAVNKAGKGVRAFYSTPSCYAHALYEQNRTWTTKTDDFFPYASDEHAYWTGYFTSRPAIKRMERIGNNLLQACKQLDVLADNNGRFEMNLTKMREAMGVMQHHDAVTGTEKQHVAFNYAKMLDSAMLQCRHIINESYKKLLPKSSTSEHEFCPYLNISSCPTTEMGESRIIYLYNPLGHRLINHTVRLPIKNGYYYRIQDQNNQSVPSVLVPIPEFVQKIPGRKSVATKELVFRVPVIEPLGITTMYMYVDKNEQPNSAIEIKGENPDDNDDKSKWLVLTKNLIVEFYSNGTISRISIDKLHQSISISNEFRLYHGAGGTGRHSGAYIFRPNEQKTFPVTNKIKSTFFIDRKYHIVQEVHQQFDSSFVGQIIRMDKYNDNVEFDFVVGPIPVNDQIGKEIIASYKTDLENDETFYTDANGRQMLRRRWNYRPSWKYNVQEPISGNYYPVNSRIAIRDEKQSLQMTIMTDRSQGGSLSPEQINGSIDIMIHRRLLHDDYFGVGEALNEPGVDGHGLVIRGKHLLLLNSIKQSASEHRPLAQQMFMEPIISFTSIESNKQAEKQSNQYIGLNNDLPSNVHLLTLEQWHSKRYLLRLEHFYQSNEDTELSKPVKLSLRHLFKSFEIIAVEELTLGANQPISSLKNRLHYRYNRPLEQRQQQQSSLLLDDPKIEGENFDIHLSPMQIRTFLIDIKRN
B3: A011: house dust mite protein; SEQ ID NO: 39 (Der f), 40 (Der p), 309 (Blo t) (protein)
chain: KSAPEGCFRAAVLDHVHQTDARHLSNTAKIIDLNFKVYEDAAALAKKQGADIIVFPENGLIYSILSREKADEFASDIPDAEVNACTLDSKFVYNRLACLAQKHQMFVVADLIDRKSCEELGINNVSDSCPADKKFLFNTAVLFDRQGKLLGRYHKMHLFGEISMNPPPKPELLVIDTELGRLGMQICFDMIFKTPGYLLAQENKFDTMLFPTWWFDESPMLSSSQYQMAWAFGNNVTLLASNIHRIEVGSRGSGIYVGPHRTLAAALYDDSVERLVLANVPIKPKETDQSACPLDSEIIEVPQQIPIPKSVKYHHQNLNLKDVTLLQLSSNESEVHLCHKGVCCQFEYRLAMKDQPQESWVDRVPLLANMLHYLTPEERYYLLIANRTRPGAYPWSEEFCAVVVCPSSRWNFGKMQKDCSKIGSNQELSSRFVHAKLRGKFSEDTAVYPSAVGSKNQLIYPENKWKFWKVNVPNEPEYFIELGAKDNSESRAMELGALVLYGRNYNRDPRYEQKALPIN

How the values were obtained:
Type in all cases: cell-based, human
[1] = tested on: basophils in whole blood from HDM allergic donors; experiment: Basophil Activation Test (BAT); conditions: blood from HDM allergic individuals (n=14)
Protocol: Basophil Activation Test (BAT) was used as a predictive in vitro assay for indication of safety/immediate hypersensitivity reactions. The BAT assay is a widely used diagnostic test that is also used for evaluation of allergenicity of allergen derived components. In short: whole blood from HDM allergic donors was stimulated for 1 h with the proteins, and the increased expression of activation markers on the surface of basophils were measured by flow cytometry. The BAT test was carried out using different concentrations of the proteins and the allergens Der p 2 and Der p 1 was used as controls and tested in the same concentration rates.
(§1) This example relates to the further testing of immunogenicity of the proteins identified in Example 1. Their ability to react with IgE antibodies in HDM allergic individuals, to stimulate in vitro T cell proliferation of HDM allergic individuals and non-allergics, and to stimulate ex vivo cytokine production of HDM allergic individuals and non-allergics. The following tests were used: • Basophil Activation Test (BAT) was used as a predictive in vitro assay for indication of safety/immediate hypersensitivity reactions. BAT test was carried out using blood from HDM allergic individuals (n=14), and by use of different concentrations of test proteins or the major house dust mite allergens (Der p 1, Der f 1, Der p 2 or Der f 2, e.g. a concentration of 1, 10, 100 or 1000 ng/ml. • In vitro T cell reactivity determined in T cell lines obtained from HDM allergic individuals (n=30) and non-allergics (n=8): Determined by establishment of HDM specific T-cell lines according to standard methods. In short, PMBCs from HDM allergic donors were cultured for 3 weeks in the presence of house dust mite allergen extract. The responses to proteins at a concentration of 0.5 ug/ml or 2 ug/ml of the test protein or the major house dust mite allergens (Der p 1, Der f 1, Der p 2 or Der f 2) were assessed by proliferation in a standard 72 h T cell proliferation assay, as described in Henmar H et al., Clin Exp Immunol 2008; 153(3):316-23. […]. • Ex vivo stimulation of PBMC cells obtained from mite allergic patients (n=16) and non-allergics (n=6): Determined by measuring the production of the cytokines; IFN-gamma, IL-9, IL-10, IL-17 and IL-31 following stimulation with test protein in concentration up to 10 ug/ml. Freshly isolated PBMC 5×10^6/ml were cultured with a test protein for 5 days and cell supernatant were harvested and stored at −80° C. Cytokines of the supernatants were measured using ProcartaPlex Multiplex Immunoassays with MAGPIX Multiplex Reader according manufactory protocol.

[2] = tested on: T cell lines obtained from HDM allergic individuals and non-allergics; experiment: In vitro T cell proliferation test in T cell lines (Example 3); conditions: 0.5 or 2 ug/ml, 72 h; for % responders of in-vitro T cell proliferation test, Allergic: T cell lines from HDM allergic individuals (n=30); for % responders of in-vitro T cell proliferation test, Non-allergics: T cell lines from non-allergics (n=8)
Source text: as §1

[3] = tested on: PBMC cells obtained from mite allergic patients and non-allergics; experiment: Ex vivo stimulation of PBMC: cytokine production (IFN-gamma, IL-9, IL-10, IL-17, IL-31)
Source text: as §1

Molecule | # of individuals of 14 with positive BAT test ([1]; 1 ng/ml) | # of individuals of 14 with positive BAT test ([1]; 10 ng/ml) | # of individuals of 14 with positive BAT test ([1]; 100 ng/ml) | # of individuals of 14 with positive BAT test ([1]; 1000 ng/ml) | % responders of in-vitro T cell proliferation test, Allergic [2] | % responders of in-vitro T cell proliferation test, Non-allergics [2] [%] | % HDM allergic individuals with cytokine production in ex-vivo T cell assay IL-5 [3] [%] | % HDM allergic individuals with cytokine production in ex-vivo T cell assay IL-9 [3] [%] | % HDM allergic individuals with cytokine production in ex-vivo T cell assay IL-10 [3] [%] | % HDM allergic individuals with cytokine production in ex-vivo T cell assay IL-13 [3] [%] | % HDM allergic individuals with cytokine production in ex-vivo T cell assay IL-17 [3] [%] | % HDM allergic individuals with cytokine production in ex-vivo T cell assay IL-31 [3] [%] | % HDM allergic individuals with cytokine production in ex-vivo T cell assay INF-g [3] [%] | % non-allergic individuals with cytokine production in ex-vivo T cell assay IL-5 [3] [%] | % non-allergic individuals with cytokine production in ex-vivo T cell assay IL-9 [3] [%] | % non-allergic individuals with cytokine production in ex-vivo T cell assay IL-10 [3] [%] | % non-allergic individuals with cytokine production in ex-vivo T cell assay IL-13 [3] [%] | % non-allergic individuals with cytokine production in ex-vivo T cell assay IL-17 [3] [%] | % non-allergic individuals with cytokine production in ex-vivo T cell assay IL-31 [3] [%] | % non-allergic individuals with cytokine production in ex-vivo T cell assay INF-g [3] [%]
B1 | 0 | 0 | 0 | 1 | 100* % | 14 | 31 | 13 | 38 | 44 | 13 | 6 | 0 | 0 | 0 | 0 | 0 | 0 | 0 | 0
B2 | 0 | 0 | 0 | 3 | 36% | 63 | 0 | 0 | 94 | 6 | 19 | 0 | 19 | 0 | 0 | 100 | 0 | 33 | 0 | 50
B3 | 0 | 0 | 0 | 1 | 64% | 13 | 25 | 6 | 13 | 19 | 6 | 6 | 0 | 0 | 0 | 0 | 0 | 0 | 0 | 17
